Experimental data taken from article PMC8928223, “The Collagen Receptor Discoidin Domain Receptor 1b Enhances Integrin β1-Mediated Cell Migration by Interacting With Talin and Promoting Rac1 Activation” (Frontiers in Cell and Developmental Biology, 2022).

B1: Breakpoint cluster region protein (BCR) (natural protein, human (endogenous in HEK 293), UniProt P11274 1-1271, looked up)
chain: MVDPVGFAEAWKAQFPDSEPPRMELRSVGDIEQELERCKASIRRLEQEVNQERFRMIYLQTLLAKEKKSYDRQRWGFRRAAQAPDGASEPRASASRPQPAPADGADPPPAEEPEARPDGEGSPGKARPGTARRPGAAASGERDDRGPPASVAALRSNFERIRKGHGQPGADAEKPFYVNVEFHHERGLVKVNDKEVSDRISSLGSQAMQMERKKSQHGAGSSVGDASRPPYRGRSSESSCGVDGDYEDAELNPRFLKDNLIDANGGSRPPWPPLEYQPYQSIYVGGMMEGEGKGPLLRSQSTSEQEKRLTWPRRSYSPRSFEDCGGGYTPDCSSNENLTSSEEDFSSGQSSRVSPSPTTYRMFRDKSRSPSQNSQQSFDSSSPPTPQCHKRHRHCPVVVSEATIVGVRKTGQIWPNDGEGAFHGDADGSFGTPPGYGCAADRAEEQRRHQDGLPYIDDSPSSSPHLSSKGRGSRDALVSGALESTKASELDLEKGLEMRKWVLSGILASEETYLSHLEALLLPMKPLKAAATTSQPVLTSQQIETIFFKVPELYEIHKEFYDGLFPRVQQWSHQQRVGDLFQKLASQLGVYRAFVDNYGVAMEMAEKCCQANAQFAEISENLRARSNKDAKDPTTKNSLETLLYKPVDRVTRSTLVLHDLLKHTPASHPDHPLLQDALRISQNFLSSINEEITPRRQSMTVKKGEHRQLLKDSFMVELVEGARKLRHVFLFTDLLLCTKLKKQSGGKTQQYDCKWYIPLTDLSFQMVDELEAVPNIPLVPDEELDALKIKISQIKNDIQREKRANKGSKATERLKKKLSEQESLLLLMSPSMAFRVHSRNGKSYTFLISSDYERAEWRENIREQQKKCFRSFSLTSVELQMLTNSCVKLQTVHSIPLTINKEDDESPGLYGFLNVIVHSATGFKQSSNLYCTLEVDSFGYFVNKAKTRVYRDTAEPNWNEEFEIELEGSQTLRILCYEKCYNKTKIPKEDGESTDRLMGKGQVQLDPQALQDRDWQRTVIAMNGIEVKLSVKFNSREFSLKRMPSRKQTGVFGVKIAVVTKRERSKVPYIVRQCVEEIERRGMEEVGIYRVSGVATDIQALKAAFDVNNKDVSVMMSEMDVNAIAGTLKLYFRELPEPLFTDEFYPNFAEGIALSDPVAKESCMLNLLLSLPEANLLTFLFLLDHLKRVAEKEAVNKMSLHNLATVFGPTLLRPSEKESKLPANPSQPITMTDSWSLEVMSQVQVLLYFLQLEAIPAPDSKRQSILFSTEV
modifications: biotinylated by the turbo ligase in cells
notes: Breakpoint cluster region protein, in HEK 293 cells, detected with an anti-BCR antibody after streptavidin pull-down; source: endogenous, HEK 293 cells, in lysate
B2: DDR1b cytoplasmic domain (domain or fragment)
chain: WRLHWRRLLSKAERRVLEEELTVHLSVPGDTILINNRPGPREPPPYQEPRPRGNPPHSAPCVPNGSALLLSNPAYRLLLATYARPPRGPGPPTPAWAKPTNTQAYSGDYMEPEKPGAPLLPPPPQNSVPHYAEADIVTLQGVTGGNTYAVPALPPGAVGDGPPRVDFPRSRLRFKEKLGEGQFGEVHLCEVDSPQDLVSLDFPLNVRKGHPLLVAVKILRPDATKNARNDFLKEVKIMSRLKDPNIIRLLGVCVQDDPLCMITDYMENGDLNQFLSAHQLEDKAAEGAPGDGQAAQGPTISYPMLLHVAAQIASGMRYLATLNFVHRDLATRNCLVGENFTIKIADFGMSRNLYAGDYYRVQGRAVLPIRWMAWECILMGKFTTASDVWAFGVTLWEVLMLCRAQPFGQLTDEQVIENAGEFFRDQGRQVYLSRPPACPQGLYELMLRCWSRESEQRPPFSQLHRFLAEDALNTV
B3: DDR1a cytoplasmic domain (domain or fragment)
chain: WRLHWRRLLSKAERRVLEEELTVHLSVPGDTILINNRPGPREPPPYQEPRPRGNPPHSAPCVPNGSAYSGDYMEPEKPGAPLLPPPPQNSVPHYAEADIVTLQGVTGGNTYAVPALPPGAVGDGPPRVDFPRSRLRFKEKLGEGQFGEVHLCEVDSPQDLVSLDFPLNVRKGHPLLVAVKILRPDATKNARNDFLKEVKIMSRLKDPNIIRLLGVCVQDDPLCMITDYMENGDLNQFLSAHQLEDKAAEGAPGDGQAAQGPTISYPMLLHVAAQIASGMRYLATLNFVHRDLATRNCLVGENFTIKIADFGMSRNLYAGDYYRVQGRAVLPIRWMAWECILMGKFTTASDVWAFGVTLWEVLMLCRAQPFGQLTDEQVIENAGEFFRDQGRQVYLSRPPACPQGLYELMLRCWSRESEQRPPFSQLHRFLAEDALNTV

Tests used:
[1] = biological target: T1, DDR1b-Turbo containing a Flag tag (human, UniProt Q08345-1 19-913); assay: proximity labelling; BioID with turbo-Flag fused to DDR1 in HEK cells plated on collagen I (30 µg/ml) for 1-3 h with 50 µM biotin; streptavidin-agarose pull-down of the lysate and Western blot; conditions: partners not purified
T1 construct: Discoidin domain receptor 1, isoform DDR1b, human, fused to the biotin ligase turbo-Flag as bait for BioID; construct described in Borza et al., 2021; source: HEK 293, stably transfected, in live cells and lysate

[2] = biological target: T2, talin head domain (THD, a. a. 1-433), HIS-tagged (UniProt P26039 1-433); assay: ELISA
T2 chain: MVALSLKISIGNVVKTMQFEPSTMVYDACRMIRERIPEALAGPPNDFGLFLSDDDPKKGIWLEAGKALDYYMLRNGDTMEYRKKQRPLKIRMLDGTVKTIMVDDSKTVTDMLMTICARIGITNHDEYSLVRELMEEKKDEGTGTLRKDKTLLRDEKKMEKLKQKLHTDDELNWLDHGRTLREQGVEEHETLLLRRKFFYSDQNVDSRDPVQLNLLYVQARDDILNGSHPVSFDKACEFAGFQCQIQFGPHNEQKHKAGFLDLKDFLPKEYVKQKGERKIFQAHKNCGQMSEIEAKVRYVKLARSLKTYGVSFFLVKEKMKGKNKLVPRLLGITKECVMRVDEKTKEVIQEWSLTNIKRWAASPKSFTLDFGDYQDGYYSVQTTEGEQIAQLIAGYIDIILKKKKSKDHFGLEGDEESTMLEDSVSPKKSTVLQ

Row | Binder | fold increase in biotinylated BCR against DDR1a-expressing cells [1] [fold] | Kd [2] [nM]
1 | B1 | 2.92 ± 1.42 | –
2 | B2 | – | 96.5
3 | B3 | – | 220
